# Experimental data taken from patent US8431396B2, “Anti-angiogenic peptides” (The Cleveland Clinic Foundation, priority 2003, dated 2013).
# T1: VEGF (Homo sapiens, UniProt P15692)
# T1 construct: purchased Genentech (gift, not bought)
# T1 sequence (P15692 27-191 isoform P15692-4): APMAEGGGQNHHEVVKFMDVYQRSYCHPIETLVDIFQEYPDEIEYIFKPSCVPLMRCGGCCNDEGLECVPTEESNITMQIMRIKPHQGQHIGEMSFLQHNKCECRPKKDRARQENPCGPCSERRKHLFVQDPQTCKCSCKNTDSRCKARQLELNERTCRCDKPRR
# B1: recombinant human TIMP3 (tissue inhibitor of metalloproteinases-3) (other)
# chain: CTCSPSHPQDAFCNSDIVIRAKVVGKKLVKEGPFGTLVYTIKQMKMYRGFTKMPHVQYIHTEASESLCGLKLEVNKYQYLLTGRVYDGKMYTGLCNFVERWDQLTLSQRKGLNYRYHLGCNCKIKSCYYLPCFVTSKNECLWTDMLSNFGYPGYQSKHYACIRQKGGYCSWYRGWAPPDKSIINATDP
# notes: Radio-iodinated in some assays; also called rTIMP3; recombinant TIMP3
# Assays:
# [1] = target: T2, KDR (Homo sapiens, UniProt P35968); assay: [125I]VEGF binding to the surface of PAE-KDR cells; conditions: same conditions as TIMP3
# T2 construct: To determine whether these receptor isoforms represent full-length VEGFR-2; expressed in transfected cells; host or cells: porcine aortic endothelial (PAE) cells
# T2 sequence (P35968 20-1356): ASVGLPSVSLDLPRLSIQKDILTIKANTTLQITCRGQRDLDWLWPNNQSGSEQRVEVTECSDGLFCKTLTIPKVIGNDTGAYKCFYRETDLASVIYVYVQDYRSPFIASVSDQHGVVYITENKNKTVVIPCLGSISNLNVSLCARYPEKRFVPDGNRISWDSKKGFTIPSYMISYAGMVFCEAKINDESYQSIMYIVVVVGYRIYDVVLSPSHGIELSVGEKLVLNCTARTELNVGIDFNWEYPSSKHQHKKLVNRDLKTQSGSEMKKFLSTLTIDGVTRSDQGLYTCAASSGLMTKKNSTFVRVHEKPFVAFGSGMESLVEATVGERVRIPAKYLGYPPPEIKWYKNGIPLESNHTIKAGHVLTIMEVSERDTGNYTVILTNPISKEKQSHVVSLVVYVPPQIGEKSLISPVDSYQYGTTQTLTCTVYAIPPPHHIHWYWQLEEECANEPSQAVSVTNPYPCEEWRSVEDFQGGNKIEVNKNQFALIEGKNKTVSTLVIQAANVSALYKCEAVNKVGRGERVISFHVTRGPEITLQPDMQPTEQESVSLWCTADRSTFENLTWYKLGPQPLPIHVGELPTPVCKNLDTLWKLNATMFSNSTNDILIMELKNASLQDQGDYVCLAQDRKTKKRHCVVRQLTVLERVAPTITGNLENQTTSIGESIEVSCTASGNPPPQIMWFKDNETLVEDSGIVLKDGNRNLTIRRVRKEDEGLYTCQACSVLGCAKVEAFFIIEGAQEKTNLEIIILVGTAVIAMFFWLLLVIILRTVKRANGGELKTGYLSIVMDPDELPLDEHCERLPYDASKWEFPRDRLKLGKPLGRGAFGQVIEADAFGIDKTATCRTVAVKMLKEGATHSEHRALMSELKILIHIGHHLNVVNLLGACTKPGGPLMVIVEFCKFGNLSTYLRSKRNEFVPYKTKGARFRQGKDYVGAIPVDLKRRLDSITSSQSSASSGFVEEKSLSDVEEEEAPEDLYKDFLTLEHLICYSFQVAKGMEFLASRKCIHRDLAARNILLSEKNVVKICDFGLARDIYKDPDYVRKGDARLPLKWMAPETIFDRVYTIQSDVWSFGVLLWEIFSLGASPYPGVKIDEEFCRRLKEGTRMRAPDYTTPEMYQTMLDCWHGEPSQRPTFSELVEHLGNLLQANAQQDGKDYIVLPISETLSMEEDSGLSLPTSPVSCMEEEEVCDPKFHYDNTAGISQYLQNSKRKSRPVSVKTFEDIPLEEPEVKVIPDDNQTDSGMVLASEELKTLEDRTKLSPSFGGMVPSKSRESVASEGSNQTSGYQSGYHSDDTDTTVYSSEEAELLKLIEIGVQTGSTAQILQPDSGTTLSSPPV
# Description: Radioligand binding is expressed as percent binding and is the mean±s.e.m. of triplicate samples. […] All values are expressed as mean±s.e.m. of triplicate samples. […] Binding is expressed as mean±s.e.m.
# Data were analyzed by Scatchard plot analyses.
# [2] = target: KDR (VEGFR2) (Homo sapiens, UniProt P35968); assay: ELISA of sKDR binding to VEGF-coated plates
# Chain of KDR (VEGFR2) (P35968 20-764 limits assumed): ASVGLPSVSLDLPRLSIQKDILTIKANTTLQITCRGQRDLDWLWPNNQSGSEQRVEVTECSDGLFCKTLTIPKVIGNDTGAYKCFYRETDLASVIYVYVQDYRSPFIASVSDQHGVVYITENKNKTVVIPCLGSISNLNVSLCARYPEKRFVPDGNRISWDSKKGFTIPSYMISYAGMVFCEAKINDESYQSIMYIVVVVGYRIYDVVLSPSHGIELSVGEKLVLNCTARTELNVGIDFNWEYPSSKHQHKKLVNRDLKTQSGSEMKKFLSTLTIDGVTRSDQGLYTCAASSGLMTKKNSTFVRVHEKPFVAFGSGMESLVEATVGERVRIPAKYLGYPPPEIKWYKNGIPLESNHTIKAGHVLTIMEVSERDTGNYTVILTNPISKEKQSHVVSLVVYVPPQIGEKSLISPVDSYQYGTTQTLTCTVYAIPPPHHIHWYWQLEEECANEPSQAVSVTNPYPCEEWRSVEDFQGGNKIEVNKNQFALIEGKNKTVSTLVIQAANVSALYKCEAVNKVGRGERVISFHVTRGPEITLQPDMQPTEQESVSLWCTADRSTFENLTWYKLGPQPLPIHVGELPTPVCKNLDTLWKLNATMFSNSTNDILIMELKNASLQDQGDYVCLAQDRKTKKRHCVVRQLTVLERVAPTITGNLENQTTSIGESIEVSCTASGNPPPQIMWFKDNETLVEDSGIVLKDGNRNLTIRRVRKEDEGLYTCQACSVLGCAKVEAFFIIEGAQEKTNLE
# Description: In the assay, 96 well immunoplates were coated with VEG (80 ng/ml) as per standard procedures.
# [3] = test system: Choroidal Neovascularization (CNV); assay: Laser-induced choroidal neovascularization (CNV) mouse model of AMD; type: in vivo, C57BL6 mice; conditions: single intravitreal injection on day 3; examined 14 days after laser
# Description: We next tested the ability of intravitreal TIMP-3 tail and loop 6 peptide to inhibit Choroidal Neovascularization (CNV), a mouse model of age-related macular degeneration (AMD). C57BL6 mice (n=5) in each each group were lasered to induce CNV. On day 3 intravitreal injections [single dose] of control N terminal peptide (116) or TIMP-3 peptides (Tail peptide (SEQ ID NO: 13), Loop 6 (SEQ ID NO: 12), and Loop 5 (SEQ ID NO: 11) were administered. Animals were sacrificed at 14 days following laser and whole mount retinas were examined for evidence of CNV following injection of fluorescein dextran marker.
# [4] = target: T1, VEGF; assay: Solid-phase direct binding of [125I]VEGF to wells coated with TIMPs
# [5] = test system: PAE-KDR cells; assay: Endothelial cell migration toward VEGF (modified Boyden chamber); type: cell-based, porcine; conditions: added exogenously; VEGF165 10 ng/ml
# Description: (B) Comparison of the effects of rTIMP3, rTIMP1 and BB3103 on VEGF165-induced migration of PAE-KDR cells. […] In all migration experiments, migrating cell number is expressed as mean±s.e.m. of quadruplicate samples. All experiments were done in triplicate. Open symbols, KDR-vector; closed symbols, KDR-TIMP3.*, P<0.01; **, P<0.05.
# (§1) A modified Boyden chamber assay for migration and proliferation assays were carried out as described.
# [6] = test system: chick embryo chorioallantoic membrane (CAM); assay: Chick embryo chorioallantoic membrane (CAM) assay of VEGF-mediated angiogenesis; type: in vivo, chicken
# From the text: The CAM assay was done as described with slight modifications. Fertilized 3-day-old white Leghorn eggs (Sunnyside, Beaver Dam, Wis.) were cracked and embryos with the yolk intact were placed in glass-bottomed Petri dishes. […] Angiogenesis was reported as the angiogenic index (mean number of tertiary branchpoints from experimental conditions minus the mean number of branchpoints from buffer controls with no angiogenic stimulator).
# [7] = test system: PAEKDR cells; assay: VEGF-stimulated proliferation ([3H]thymidine) of transfected PAEKDR cells; type: cell-based, porcine; conditions: mock cells
# Description: Cells were seeded at a density of 5000 cells/well in 24 well culture plates and cultured for 24 h in growth medium. […] High molecular weight DNA was precipitated using 5% trichloroacetic acid at 4° C. for 30 min After two washes with ice-cold H2O, 3H radioactivity was solubilized in 1 N NaOH for 20 min at room temperature, acidified by addition of 2 N HCl, and measured using a liquid scintillation counter. Each sample was assayed in triplicate and the assays were repeated at least twice.
# [8] = target: VEGFR1 (FLT-1) (Homo sapiens, UniProt P17948); conditions: read-out: Kd of VEGF binding to VEGFR1; cited from earlier work
# Chain of VEGFR1 (FLT-1) (P17948 27-1338, species assumed): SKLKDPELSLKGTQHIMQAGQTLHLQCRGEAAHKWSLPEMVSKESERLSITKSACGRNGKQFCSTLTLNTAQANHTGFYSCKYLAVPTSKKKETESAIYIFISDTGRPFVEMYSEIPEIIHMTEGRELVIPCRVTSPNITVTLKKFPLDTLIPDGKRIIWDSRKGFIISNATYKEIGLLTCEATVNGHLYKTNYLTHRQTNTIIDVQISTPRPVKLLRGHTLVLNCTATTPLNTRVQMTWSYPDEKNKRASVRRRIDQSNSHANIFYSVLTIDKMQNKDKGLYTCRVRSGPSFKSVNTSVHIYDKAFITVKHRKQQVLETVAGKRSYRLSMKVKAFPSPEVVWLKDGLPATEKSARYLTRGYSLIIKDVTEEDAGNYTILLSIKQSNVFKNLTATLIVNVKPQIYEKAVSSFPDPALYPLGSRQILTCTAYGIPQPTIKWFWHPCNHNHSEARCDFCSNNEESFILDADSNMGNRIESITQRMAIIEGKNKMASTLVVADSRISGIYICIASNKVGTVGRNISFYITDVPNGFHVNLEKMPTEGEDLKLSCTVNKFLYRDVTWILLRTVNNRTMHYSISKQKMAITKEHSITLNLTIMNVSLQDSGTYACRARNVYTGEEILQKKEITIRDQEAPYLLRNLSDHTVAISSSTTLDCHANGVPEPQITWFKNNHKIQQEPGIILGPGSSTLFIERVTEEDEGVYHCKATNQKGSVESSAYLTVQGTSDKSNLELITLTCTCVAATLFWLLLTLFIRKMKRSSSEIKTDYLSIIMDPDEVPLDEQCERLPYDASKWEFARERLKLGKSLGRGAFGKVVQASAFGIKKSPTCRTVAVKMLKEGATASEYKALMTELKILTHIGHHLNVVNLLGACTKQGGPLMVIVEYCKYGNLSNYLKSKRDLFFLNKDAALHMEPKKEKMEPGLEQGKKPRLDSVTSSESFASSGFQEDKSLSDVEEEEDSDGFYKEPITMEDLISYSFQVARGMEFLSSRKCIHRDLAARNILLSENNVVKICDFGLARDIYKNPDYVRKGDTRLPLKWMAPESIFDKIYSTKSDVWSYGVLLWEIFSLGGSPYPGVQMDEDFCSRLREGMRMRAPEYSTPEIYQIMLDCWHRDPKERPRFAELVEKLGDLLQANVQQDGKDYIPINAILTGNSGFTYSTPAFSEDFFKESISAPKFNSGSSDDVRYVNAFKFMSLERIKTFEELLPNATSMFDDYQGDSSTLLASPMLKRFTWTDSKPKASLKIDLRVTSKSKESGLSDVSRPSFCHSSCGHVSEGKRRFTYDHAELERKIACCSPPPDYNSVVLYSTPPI
# [9] = test system: PAEKDR cells; assay: VEGF-stimulated migration (modified Boyden chamber) of transfected PAEKDR cells; type: cell-based, porcine; conditions: mock cells
# Description: A modified Boyden chamber assay was carried out as described previously 34. Briefly, 8.0 μm pore PVPF polycarbonate membranes were pre-coated with 100 μg/ml collagen type I in 0.2 N acetic acid (Cohesion technologies, INC. Pala Alto, Calif.). […] Chamber was then incubated for 4 hrs at 37° C. in a 5% CO2 humidified incubator. Cells remaining on the top of the filter were removed. Cells on the bottom surface of the filter were fixed, stained and mounted. The number of migrating cells per well was counted microscopically.
# [10] = test system: endothelial cells; assay: Competitive displacement of [125I]TIMP3 from the surface of endothelial cells; type: binding; conditions: unlabeled VEGF 2 μg/ml, TIMP3 10 μg/ml
# Description: Immunoprecipitation of cell lysates with antibodies specific for TIMP3 was followed by immunoblotting with antibodies specific for KDR (top). As a control for KDR receptor, cell lysates were immunoprecipitated with anti-bodies specific for KDR and probed with antibodies specific for KDR Immunoprecipitation with antibodies specific for KDR and immunoblotting with antibodies specific for TIMP3 (bottom) were carried out on PAE-KDR cells exposed to recombinant TIMP3 or PAE-KDR-vector and PAE-KDR cells overexpressing TIMP3, to confirm the interaction. […] Competition with unlabeled TIMP3 was carried out to ensure specificity. […] (E) In vivo interaction of KDR and TIMP3 in human placenta. Immunoprecipitation using antibodies specific TIMP3 (top) and KDR (bottom) was followed by immunoblotting with antibodies specific for KDR (top) and TIMP3 (bottom).
# [11] = target: T3, soluble KDR-IgG (receptor IgG chimeric protein) (UniProt P35968 20-764, limits assumed); assay: solid-phase assay: displacement of [125I]VEGF165 from soluble KDR-IgG by TIMP3
# T3 construct: Bought from R&D Systems; also called KDR-Fc; sKDR; not shown: IgG Fc portion
# T3 sequence (P35968 20-764 limits assumed, change not shown): as the sequence (P35968 20-764 limits assumed) above
# Description: Soluble KDR-Fc or FLT1-Fc (50 ng) was added to each well. […] After washing, the bound protein was solubilized with 1% SDS and 1 M NaOH and radioactivity measured in a γ-counter.
# [12] = target: T4, KDR (VEGFR2) on the surface of PAE-KDR cells (human, UniProt P35968 20-1356); assay: inhibition of [125I]VEGF binding to PAE-KDR cells by pretreatment with TIMP3
# T4 construct: whole, on cells; also called KDR-vector
# T4 sequence (P35968 20-1356): as the sequence (P35968 20-1356) above
# [13] = test system: MS1 endothelial cells; assay: 125I-VEGF165 binding to adenovirus-infected MS1 endothelial cells; design: species or system mouse; conditions: cells infected with adenovirus expressing TIMP3Cys1-Ser
# Description: Radioligand binding is expressed as percent binding and is the mean±s.e.m. of triplicate samples. […] All values are expressed as mean±s.e.m. of triplicate samples. […] Binding is expressed as mean±s.e.m. Data is shown as percent binding of triplicate samples, with binding to PAE-KDR cells in the absence of any inhibitor as 100%. *, P<0.01. […] P<0.01.
# (§2) MS1 mouse endothelial cells\(American Type Culture Collection, Manassas, Va.) were cultured until 80% confluent and infected with adenovirus as described. Cells were infected at 50 or 200 plaque-forming units per cell for 18 h. Medium was then replaced with fresh complete medium and left for 48 h until analysis.
# [14] = test system: MS1 mouse endothelial cells; assay: MS1 endothelial cells infected with adenovirus expressing WT-TIMP3 or TIMP3Cys1-Ser: apoptosis and [3H]thymidine incorporation; type: cell-based
# Description: as §2, §1
# [15] = test system: MMPs; assay: Reverse zymography of ECM extracts (MMP-inhibitory activity); type: biochemical; conditions: MS1 cells infected with Rad-TIMP3Cys1-Ser vs wild-type
# Description: Conditioned medium, cell lysates and ECM fractions from transfected cells were prepared. Equal amounts of protein were loaded onto a 12% gel with 1 mg/ml gelatin plus RPE cell-conditioned medium, as a source of MMPs, for reverse zymography and processed as described.
# [16] = target: T5, recombinant human TIMP2 (human, UniProt P16035 27-220); assay: solid-phase binding of [125I]VEGF to wells coated with TIMP2
# T5 construct: also called rTIMP2
# [17] = target: T6, recombinant human TIMP1 (human, UniProt P01033 24-207); assay: solid-phase binding of [125I]VEGF to wells coated with TIMP1
# T6 construct: also called rTIMP1
# T6 sequence (P01033 24-207 limits assumed): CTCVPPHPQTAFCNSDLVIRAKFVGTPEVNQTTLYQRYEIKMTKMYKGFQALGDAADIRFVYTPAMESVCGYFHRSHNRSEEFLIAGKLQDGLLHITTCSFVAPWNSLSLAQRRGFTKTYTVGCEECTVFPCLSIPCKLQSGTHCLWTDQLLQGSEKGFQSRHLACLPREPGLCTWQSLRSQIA
# [18] = target: B1; assay: solid-phase binding of [125I]VEGF to wells coated with TIMP3
molecule,measurement,setting,value
"O=C(NO)[C@@H](Cc1ccccc1)NS(=O)(=O)c1ccc(-c2ccccc2)cc1 [MMP-2 and MMP-9 inhibitor, (2R)-[(4-biphenylylsulfonyl)amino]-N-hydroxy-3-phenylpropionamide]",inhibition of binding of VEGF to PAE-KDR cells,[1],could not inhibit binding of VEGF
"GYCSWYRGWAPPDKSIINATDP (listed as Homo sapiens) [tail peptide, synthetic peptide from the tail portion of the C-terminal region of TIMP-3]","inhibition of VEGF binding to KDR at lower doses, comparison of peptides",[2]; 0.03 μM and 0.1 μM,inhibited VEGF binding better than the Loop 6 peptide and the Loop 5 peptide
same,inhibition of VEGF binding to KDR,[2]; 3 μM,inhibit VEGF binding
same,inhibition of VEGF binding to KDR compared with recombinant TIMP-3,[2]; 3 μM,same levels as recombinant TIMP-3
same,"inhibition of CNV (fluorescein dextran, whole mount retina)",[3],inhibit CNV
"KNECLWTDMLSNFGYPGYQSKHYACIRQKG (listed as Homo sapiens) [loop 6 peptide, synthetic peptide from loop-6 of the C-terminal region of TIMP-3]",inhibition of VEGF binding to KDR,[2]; 3 μM,inhibit VEGF binding
same,"inhibition of CNV (fluorescein dextran, whole mount retina)",[3],inhibit CNV
TIMP1: recombinant human TIMP1 expressed in NSO myeloma cells [reference compound],inhibition of binding of VEGF to PAE-KDR cells,[1],could not inhibit the binding of VEGF to KDR
same,direct binding of [125I]VEGF to coated TIMP,[4],did not detect direct binding
same,inhibition of endothelial cell migration toward VEGF,[5],not observed
same,angiogenic index (tertiary branchpoints of capillaries),[6]; VEGF plus inhibitor,172±8
VEGF [reference compound],VEGF concentration of maximum proliferative activity,[7],15 ng/mL
same,Kd,[8],0.015 to 0.1 nM
same,VEGF concentration of maximum migratory effect,[9],50 ng/mL
same,inhibition of binding of labeled TIMP3 to the surface of endothelial cells,[10],could inhibit the binding of labeled TIMP3
same,angiogenic index (tertiary branchpoints of capillaries),[6]; VEGF alone,190±5
B1,IC50,[11],2.9 µg/mL
same,IC50,[12],3.3 to 4.5 µg/mL
"TIMP3Cys1-Ser: recombinant TIMP3 protein with reduced metalloproteinase-inhibitory activity, expressed from adenovirus Rad66 (protein) STCSPSHPQDAFCNSDIVIRAKVVGKKLVKEGPFGTLVYTIKQMKMYRGFTKMPHVQYIHTEASESLCGLKLEVNKYQYLLTGRVYDGKMYTGLCNFVERWDQLTLSQRKGLNYRYHLGCNCKIKSCYYLPCFVTSKNECLWTDMLSNFGYPGYQSKHYACIRQKGGYCSWYRGWAPPDKSIINATDP",binding of VEGF to cell surfaces,[13],reduced binding of VEGF to its cell surfaces
same,apoptosis after adenovirus infection,[14]; MS1 cells infected with wild-type or mutant virus,No apoptosis was observed
same,proliferative response to VEGF ([3H]thymidine incorporation),[14]; cells infected with Rad-TIMP3Cys1-Ser,still inhibited in their proliferative response to VEGF
same,metalloproteinase-inhibitory activity (reverse zymography of ECM extracts),[15],reduced metalloproteinase-inhibitory activity
"recombinant human VEGF165 (ligand, UniProt P15692-4 27-191, looked up) APMAEGGGQNHHEVVKFMDVYQRSYCHPIETLVDIFQEYPDEIEYIFKPSCVPLMRCGGCCNDEGLECVPTEESNITMQIMRIKPHQGQHIGEMSFLQHNKCECRPKKDRARQENPCGPCSERRKHLFVQDPQTCKCSCKNTDSRCKARQLELNERTCRCDKPRR",binding result,[16],no binding
same,binding result,[17],no binding
same,binding result,[18],no binding
"C-terminal TIMP3: chimera of residues 1-126 of TIMP-2 and residues 122-188 of TIMP3 representing the isolated C-terminal domain of TIMP3 (protein, listed as Homo sapiens) CSCSPVHPQQAFCNADVVIRAKAVSEKEVDSGNDIYGNPIKRIQYEIKQIKMFKGPEKDIEFIYTAPSSAVCGVSLDVGGKKEYLIAGKAEGDGKMHITLCDFIVPWDTLSTTQKKSLNHRYQMGCCKIKSCYYLPCFVTSKNECLWTDMLSNFGYPGYQSKHYACIRQKGGYCSWYRGWAPPDKSIINATDP",inhibition of VEGF binding to KDR by TIMP3 domains,[2]; preliminary studies,inhibits binding of VEGF to KDR
